The record followed here is the supplement of paper PMC12042874.

± gives the uncertainty stated by the source.

The data set is described as follows: amyloid nucleation score (Sup35N fusion, yeast selection) (log enrichment); library NNK1; higher = more nucleation; inactive = no reads after selection. The gist of the method: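 Random libraries were run with three technical output replicates. In each, psi-negative yeast expressing Sup35N fused to peptides of 20 random codons were induced 24 hours with 100 μM copper sulfate and grown 7 days at 30°C on medium lacking adenine and uracil, and input and output plasmid inserts were Illumina-sequenced. The nucleation score is the DiMSum log enrichment of output over input reads, centred on the mode score of non-aggregating sequences, and sequences under 100 input reads were excluded.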

With FGSRVVGRCVETSHSILFVL, the amyloid nucleation score came out at 0.58 ± 1.1. Then TRRSRFW, with 1.45 ± 0.35; and AVSIWSPRIGVCETFQLDVV, with -0.573 ± 0.57. The value for LRSVSGCIKFAYGDSCMSLK was “inactive”. Then ISLVICGFYGLAEMVDNSQN, with 7.51 ± 0.077; and SNEVVKFKWSCIPETCSRVW, with 0.429 ± 0.61; and KETLGIQ, with 1.19 ± 0.52. With VCKGSHWFIYLRNGFKSPSV, the amyloid nucleation score was found to be 1.46 ± 0.65. Then TEAMTGYVLNNNWYSQLYVF, with -0.601 ± 1.1; and SIYYKARSEWSMASAIDGYV, with 0.85 ± 0.72; and AQYELLMQRNWYVGKDLVRG, with -0.192 ± 0.42. The value for LCFSGD was -0.352 ± 0.99. Then WGNTRYGTAASVCVTEVKGS, with 0.048 ± 0.4; and YPLPV, with 0.376 ± 0.28; and EACETLRLYELCLFKWERFR, with 0.47 ± 0.58. The substance RLTVSGVTLGSVTHAFCGAP yielded an amyloid nucleation score of 0.267 ± 0.67. Then ISHKQITTDSSNTVRVYGGN, with -0.122 ± 1.6; and PAPLQIRNMSSNAKTR, with “inactive”; and MNLSVSVPVHTRLDMMFM, with 5.616 ± 0.049. Regarding RPKSEISSNFLVDMGFYREM, the amyloid nucleation score turned out to be 0.808 ± 0.88. In turn, VGLLMKTACSWAGSVTDRCM came in with an amyloid nucleation score of 2.62 ± 0.14. Then NMTFSMPSNINCPFLGLR, with 0.29 ± 0.47; and ITSYSFIRSNGSVMGSWGSV, with -0.092 ± 0.65; and CNRSLWAGPRLHPWTRMYVR, with 0.85 ± 0.62. The value for CHLVSSTSAFA was 1.01 ± 0.56; that for FCFMYDGHEAWSKAFSRRNV was 0.196 ± 0.3. NSRWSIFFASMCDIRLWCVV: the amyloid nucleation score is 0.755 ± 0.84. On to QLNFYIR, for which the amyloid nucleation score turned out to be 8.212 ± 0.061. Then CCDVHGCVGNMLSFTGILLF, with 3.54 ± 0.076; and TCSGA, with -0.073 ± 0.39; and CDSVV, with -0.221 ± 0.73. The value for MYREYLGRSRRQFYFGTGKH was 3.82 ± 0.16; that for HILSSVLHSGVCMWTVITPY was 0.72 ± 0.71; that for EFMYYL was -0.979 ± 1.9. Then ILFFDVSSQGRTEDKVRNLG, with 0.088 ± 0.69; and TSSYGCQHINVMCCRLQGDL, with 7.444 ± 0.074; and SSSFTSNSFLLLLWSYKDMF, with 1.16 ± 0.21. Take DRFSYLEHDSRDRRRVE: the amyloid nucleation score entry is “inactive”. The substance LVENLWTLRRRLVGALF registered an amyloid nucleation score of 0.31 ± 0.4. Then SSLGNEFIFDSFGNK, with -0.772 ± 0.73. Substance CFDNSFTFPPDG showed an amyloid nucleation score of 0.066 ± 0.3. In the case of SVSVSCFVV, the amyloid nucleation score result is “inactive”.

Regarding SGYSLASVVILLKAVYCLGW, the amyloid nucleation score is 0.627 ± 0.72.

VRCCGPFRACIVLLAITKDG displayed an amyloid nucleation score of -0.393 ± 1.4. Then CWDLTTVCHNFNRYHSWVSR, with 0.431 ± 1.1; and SGYWAPINLTGVMDS, with 0.053 ± 1.1; and QVSCSGFYRRDLSSRL, with 0.614 ± 0.56. For the substance VAFMDLTMRLDWGNFSNR, the amyloid nucleation score was 4.34 ± 0.056. The substance RCRPKVWACS had an amyloid nucleation score of -0.102 ± 1.

As to CRLDGT, the amyloid nucleation score was -0.36 ± 0.72. Regarding GLMVHRDFGIECLQHETHFG, the amyloid nucleation score stood at 0.074 ± 0.26. Then VDNMLPFMGDYWDLFYGFLL, with -0.217 ± 0.31; and KVLTRPG, with -0.213 ± 0.64. MTGINYRAVRCAEGCRASRR had an amyloid nucleation score of 0.216 ± 0.29.

As for KMEPGPRAKALGTNRRFLLK, the amyloid nucleation score entry was “inactive”. Then SYKGWVGLVLRVETDGNWSR, with 2.28 ± 0.13; and VVLKNHRHSVLSWWLTS, with -0.622 ± 0.56. For FFTLHAFQ, the amyloid nucleation score result is “inactive”.

With GCDTQLQMGLFMSYIMNTSV, the amyloid nucleation score was -0.621 ± 1.1. As to YESRCGWASRNFSLSENQNS, the amyloid nucleation score result was “inactive”. The value for CAFEAGLWTSDFLNEPVYHY was -0.126 ± 0.3. Take LLKWLVDAW: the amyloid nucleation score was 0.493 ± 0.25. SQIYTFVDLFLSS: the amyloid nucleation score worked out at 1.26 ± 0.68. Then WFSWLVGEILCWCGGWVRSK, with 0.404 ± 0.51; and VPSSTVVDHSIYRGDMPSFA, with 0.163 ± 0.41; and IFVVMQTIFMWLDSWADQSL, with 0.391 ± 0.35.

For the substance GSRNCIWLFFVVWV, the amyloid nucleation score entry was “inactive”. The value for DCRMFDFLA was -0.444 ± 0.38; that for TRHFVTVFGCVDNRVEYLNG was 3.22 ± 0.1; that for LFRWEGVATACSCGDDASFA was -0.668 ± 1.1. Regarding WDWHIGRKWV, the amyloid nucleation score is -0.629 ± 0.62. Then ILSWSNSGRMNHRPLVYERS, with 0.963 ± 0.43; and ATRSMEAIIMRELWYIDPVY, with 0.831 ± 0.87; and TGGTNGHKASCEVRFTVTER, with 1.08 ± 0.41. Then FSFGIVSVMGYVLYRRRPWA, with 1.08 ± 0.63; and MCWPTDAEDAICTSLK, with 2.12 ± 0.11; and AESLIKHLK, with 0.334 ± 0.43. Then LSSNSYQDVSVCQGFLFFVA, with 3.36 ± 0.15.

On to RFAVCTNFANIFRLQEDQIR, for which the amyloid nucleation score amounted to 0.481 ± 0.33. Then LNICCEEYQDRYTTDNFLLL, with 0.583 ± 0.57; and LRVRFKSWDLSITLGVQ, with 1.26 ± 0.9.

MIMMDLHCGVILRALGEHGP had an amyloid nucleation score of 3.34 ± 0.11. Then YDWNNLDVLLHCLFFGDKRR, with -0.021 ± 0.26; and NMLVRKAG, with -0.036 ± 0.73; and QIFVWAFPPSGVSGHVWSRD, with 6.497 ± 0.049. Then TECSSSGIALMWVFWRSICT, with “inactive”.

SRLATQTRLKMAGSISLFRS displayed an amyloid nucleation score of -0.208 ± 1.2. FYRFDQRNLEDVGGGMYGSS displayed an amyloid nucleation score of 0.3 ± 0.83. As for IGKSCFIFVTG, the amyloid nucleation score was 0.56 ± 0.43. Take GSRFPFLVVDMCSSELVKR: the amyloid nucleation score was 0.577 ± 0.63.

With TSSWQVPVNAPEVN, the amyloid nucleation score result was “inactive”.

In the case of FYVANVACSCAFMLPITNVR, the amyloid nucleation score was -0.461 ± 0.73.

On to DMDGDSLGVFWALATVYQAH, for which the amyloid nucleation score is -0.551 ± 0.36. The value for CLILG was -1.31 ± 0.52; that for NFRNSGESSTNYSK was “inactive”. WQTSSNGLSLKATCLTYKSF yielded an amyloid nucleation score of 0.016 ± 1.7.

For the substance TGSLLTSTWS, the amyloid nucleation score is -0.474 ± 0.78. For CRLESGHYLCSHGRVSGLR, the amyloid nucleation score came out at 0.796 ± 0.38.

In turn, YGSLFED showed an amyloid nucleation score of 0.108 ± 0.77. For QNQSFLINPWQGSKLVDPTA, the amyloid nucleation score stood at 0.253 ± 0.53. The value for RALCLWTCKSYMFRN was -0.13 ± 1.1; that for WIHIVYGFWSWVWGI was -0.327 ± 0.47; that for FYGQRPKMLCPTRAEDLTKA was -0.269 ± 0.88. As to LNIGTW, the amyloid nucleation score is 0.185 ± 0.28.
